# Article PMC8670242, “Functional Characterization and Structural Insights Into Stereoselectivity of Pulegone Reductase in Menthol Biosynthesis” (Frontiers in Plant Science, 2021)
# B1: MpPR (Mentha x piperita) (protein)
# chain: MVMNKQIVLNNYINGSLKQSDLALRTSTICMEIPDGCNGAILVKNLYLSVNPYLILRMGKLDIPQFDSILPGSTIVSYGVSKVLDSTHPSYEKGELIWGSQAGWEEYTLIQNPYNLFKIQDKDVPLSYYVGILGMPGMTAYAGFFEICSPKKGETVFVTAAAGSVGQLVGQFAKMFGCYVVGSAGSKEKVDLLKNKFGFDDAFNYKEESDYDTALKRHFPEGIDIYFDNVGGKMLEAVINNMRVHGRIAVCGMVSQYSLKQPEGVHNLLKLIPKQIRMQGFVVVDYYHLYPKFLEMVLPRIKEGKVTYVEDISEGLESAPSALLGVYVGRNVGNQVVAVSRE
# notes: pET28a His-tag fusion, E. coli BL21(DE3), Ni-NTA and gel filtration; homodimer; EC 1.3.1.81
# Key:
# [1] = substrate: CC(C)=C1CC[C@H](C)CC1=O; assay: chiral GC of menthone/isomenthone formed, Michaelis-Menten; assay type: biochemical, Mentha x piperita; settings: 10 mM NADPH with glucose-6-phosphate/G6PDH regeneration, pH 7.5, 31 °C, n-hexane overlay
# [2] = substrate: CC(C)=C1CC[C@@H](C)CC1=O; assay: as above; assay type: biochemical, Mentha x piperita; settings: 10 mM NADPH with glucose-6-phosphate/G6PDH regeneration, pH 7.5, 31 °C, n-hexane overlay
protein,measurement,setting,value
B1,Km,[1],8.63 µM
same,kcat,[1],1595.06 10^-4 s^-1
same,Km,[2],3.00 µM
same,kcat,[2],863.66 10^-4 s^-1
